Biological target: fusion protein encoded by plasmid pIcoFLAGXa (amino terminal FLAG epitope, Factor Xa cleavage sequence Ile-Glu-Gly-Arg-Gly, thioredoxin with the V5 epitope at the active site, GPI linkage), displayed on COS7 cells (E. coli) [thioredoxin: P0AA25]
Assay: cell-based or functional assay

Substance: Factor Xa (enzyme)
- cells selected on streptavidin magnetic beads with biotin anti-FLAG antibody after incubation with Factor Xa: 0 % of cells
